Publication PMC4041212

Assays:
[1] = molecular target: BRCA1 (UniProt P38398); experiment: reverse co-IP; settings: reference: wild type EXO1; sites S639,T732,S815,T824
[2] = molecular target: BRCA1 (UniProt P38398); experiment: anti-V5 co-IP, BRCA1 blot; settings: reference: wild type V5-EXO1; sites S639,T732,S815,T824

EXO1 (from UniProt Q9UQ84) 4A-EXO1
binding against the reference [1]: weaker
binding against the reference [2]: weaker
